Patent US12662676B2, “Aptamer nucleic acid molecule, and complex and application thereof” (EAST CHINA UNIVERSITY OF SCIENCE AND TECHNOLOGY, priority 2019, dated 2026)

Tests used:
[1] = Pepper-based GTP sensor; format: biochemical; details: with III-3, presence vs absence of GTP; linkage 3
Procedure: In order to construct Pepper-based sensors for detecting analytes, the nucleotides in the stem-loop region in the Pepper-1 (SEQ ID No: 2) structure were replaced with the aptamers that can specifically recognize and bind adenosine and guanosine (GTP), respectively. The aptamers Pepper-1 were fused by linkage with different lengths and different nucleotides (FIG. 10A). The RNA sensors were prepared according to the commonly used experimental method (1). The RNA sensors were incubated with III-3 fluorophore, and the fluorescence was measured in the presence or absence of adenosine or GTP using a multifunctional microplate reader.

[2] = system: BL21(DE3, Star) E. coli strain expressing F30-Pepper-1; assay: Labeling of bacterial RNA; format: cell-based; details: 2 μM III-3 in PBS, 4 hours after IPTG induction
Source text: In order to test the effect of Pepper-III-3 in bacteria, a bacterial expression plasmid expressing F30-Pepper-1 was constructed. Primers were used to amplify F30-Pepper-1 in Example 2. Primers were used to amplify pET28a to remove the promoter and multiple cloning site regions. The obtained F30-Pepper-1 fragment and the linearized pET28a were ligated according to the commonly used experimental method (4). The obtained recombinant plasmid was named pET28a-T7-F30-Pepper-1.
The recombinant plasmid pET28a-T7-F30-Pepper-1was transformed into BL21(DE3, Star) E. coli strain. A single clone was picked and cultured at 37° C. to an OD600 around 0.2 before addition of 1 mM IPTG to induce the expression of F30-Pepper-1. 4 hours after induction, the bacteria were harvested and resuspended in PBS solution containing 2 μM III-3. BL21 (DE3, Star) E. coli transformed with pET28a empty vector was used as the control.

[3] = system: BY4741 strain expressing F30-Pepper-1; assay: Labeling of yeast RNA; format: cell-based; details: 2 μM III-3 in PBS, 10 hours after galactose induction
Source text: In order to test the effect of Pepper-III-3 in yeast, a yeast expression plasmid expressing F30-Pepper-1 was constructed. The F30-Pepper-1 DNA fragment in Example 2 was amplified using primers, and the amplified F30-Pepper-1 fragment was inserted into the pYES2.1TOPO TA vector according to the commonly used experimental method (4). The obtained recombinant plasmid was named pYES2.1-F30-Pepper-1.
The recombinant plasmid pYES2.1-F30-Pepper-1 was transformed into BY4741 strain, and a single clone was picked and cultured at 30° C. to an OD600=0.1 before addition of 1 mM galactose to induce the expression of F30-Pepper-1. 10 hours after induction, the yeast cells were harvested and resuspended in PBS containing 2 μM III-3. The untreated BY4741 strain was used as the control.

[4] = Thermostability of Pepper (fluorescence after 5 minutes at different temperatures); format: physicochemical; details: 1 μM aptamer with 10 μM fluorophore (III-3 for F30-Pepper-1, DFHBI-1T for F30-Broccoli), 5 minutes at each temperature
Procedure: In order to test the thermostability of Pepper, 10 μM III-3 was incubated with 1 μM F30-Pepper-1, and then was placed at different temperatures for 5 minutes before the fluorescence was determined. 10 μM DFHBI-1T was incubated with 1 μM F30-Broccoli to be as the control.

[5] = Native PAGE oligomerization identification; details: F30-Broccoli and F30-2dBroccoli as controls
Source text: In order to detect whether Pepper binds to III-3 in the form of monomer or polymer, F30-Pepper-1 was identified by the Native PAGE using the monomeric F30-Broccoli (SEQ ID NO: 4) and F30-2dBroccoli (SEQ ID NO: 5) (Filonov et al. Journal of the American Chemical Society 2014. 136: 16299-16308; Filonov et al. Chemistry & biology 2015. 22: 649-660) as the controls. The fluorescence imaging result was compared with the staining result by SYBR Gold (universal nucleic acid dye that was purchased from Invitrogen).

[6] = Binding constant of Pepper and III-3; details: 2 nM F30-Pepper-1 with different concentrations of III-3
Procedure: In order to detect the binding constant of Pepper and III-3, 2 nM F30-Pepper-1 was incubated with different concentrations of III-3 and their fluorescence was determined.

[7] = Fluorescence activation of III-3 fluorophore by Pepper aptamers and mutants; format: biochemical; details: 1 μM III-3 with 5 μM RNA
Procedure: Preparation of Pepper or Pepper mutant aptamer according to the commonly used experimental method (1). 5 μM aptamer and 1 μM fluorophore were incubated in the detection buffer (40 mM HEPES, pH 7.4, 125 mM KCl, 5 mM MgCl2, 5% DMSO). The maximal excitation and emission peaks of the aptamer-fluorophore complexes were determined using a Synergy Neo2 multifunctional microplate reader. The fluorescence intensities of the aptamer-fluorophore complexes at the maximal excitation and emission peaks were determined using a Synergy Neo2 multifunctional microplate reader. The control sample (1 μM fluorophore without aptamer) was also measured under the same conditions. Then the ratios of fluorescence intensity were calculated. For example, the fluorescence maximal excitation and emission peaks of the complex of 5 μM F30-Pepper-2 and 1 μM III-3 fluorophore are 485 nm and 530 nm, respectively. The fluorescence intensity of the complex at 485±10 nm excitation and 530 nm±10 nm emission was 36,000, the fluorescence intensity of the control sample (1 μM III-3 fluorophore only) under the same detection conditions was 10. Thus, the activation ratio of F30-Pepper-2 aptamer on III-3 fluorophore was 3,600-fold.
In order to detect the fluorescence activation of III-3 fluorophore by different Pepper mutant, the Pepper-1 sequence in F30-Pepper-1 was mutated according to Table 1. […] 1 μM III-3 was incubated with […] RNA and their fluorescence activation folds were determined according to the commonly used experimental method (5). […] In summary, many Pepper mutants containing single and multiple mutants still retain the ability to activate the fluorescence of III-3 fluorophore.
In order to detect the activation of III-3 by modified Pepper, base-modified Pepper-3 was synthesized (SEQ ID NO: 6, the underlined nucleotides in […] GGCC contain deoxyribonucleotide bases) and Pepper-4 (SEQ ID NO: 7, the underlined nucleotides in […] GGGCC contain 2′-F modification) (synthesized by Shanghai GenePharma Co., Ltd), which contain deoxyribonucleotides replacement (shaded bases in FIG. 5A) or 2′-F modification (shaded bases in FIG. 5B) in the stem-loop region of Pepper. Detection of the fluorescence activation of III-3 fluorophore by these modified Peppers was carried out according to the commonly used experimental method (5).

[8] = RNA extraction and purification with Mal-III-3 beads, in-gel fluorescence; details: gel incubated with 5 μM III-3 for 30 min
Procedure: In order to use Pepper for RNA extraction and purification, the pCDNA3.1 hygro(+)-TagBFP-4Pepper-7 and pCDNA3.1 hygro(+)-mCherry-4Pepper-7 plasmids in Example 12 were transfected into COS-7 cells, respectively. 24 hours after transfection, the cells were collected and the total RNA of the cells was extracted using the Easyp Super Total RNA Extraction Kit (Promega). The extracted total RNA was dissolved in buffer containing 40 mM HEPES, pH 7.4, 125 mM KCl, 5 mM MgCl2. The RNA was incubated at 70° C. for 10 min and placed at room temperature for more than 30 min.
500 μL activated Thiol Sepharose 4B (GE Healthcare) was washed twice with 500 μL PBS, and then was incubated with PBS containing 10 mM TCEP (Sigma) for 1 h at room temperature. After washing twice with 500 μL PBS, maleamide conjugated III-3 fluorophore (Mal-III-3) was added to react for 30 min at room temperature, and was washed three times with 500 μL PBS. The treated total RNA was incubated with the treated beads at room temperature. After 30 minutes, the mixture was centrifuged at 4000 rpm for 2 minutes, and the supernatant was discarded. […]
The recovered RNA was validated by electrophoresis. The gel was incubated with buffer containing 5 μM III-3 in 40 mM HEPES, pH 7.4, 125 mM KCl, and 5 mM MgCl2 for 30 min, and the fluorescence of 4Pepper-III-3 in the gel was detected.

With “GTP sensor: Pepper-1 with stem-loop replaced by GTP aptamer, linkage 3, SEQ ID No:22 (UCCCCAAUCGUGGCGUGUCGUAAGAAGAGCACGUAUACGCAAUAACUGGCGCCGGGA; listed as RNA, chemistry not given here)” the “activation fold of GTP sensor” value [1] was 10 folds.

For `CN(CCO)c1ccc(/C=C(\C#N)c2ccc(C#N)cc2)cc1` [III-3], the “fluorescent labeling of RNA in bacteria” value [2] was “bright yellow-green fluorescence only when F30-Pepper-1 was expressed and in the presence of III-3” and the “RNA labeling in yeast cells” value [3] was “bright yellow-green fluorescence only when F30-Pepper-1 was expressed and in the presence of III-3”.

B1: F30-Pepper-1: RNA aptamer, Pepper-1 in F30 scaffold RNA, SEQ ID NO: 2 (nucleic acid)
chain: UUGCCAUGUGUAUGUGGGUUCGCCCACAUACUCUGAUGAUCCCCAAUCGUGGCGUGUCGGCCUGCUUCGGCAGGCACUGGCGCCGGGAUCAUUCAUGGCAA
modifications: RNA, backbone not given here
With B1 the Tm [4] was 55 °C, the “form in which aptamer binds III-3 (monomer or polymer)” value [5] was “monomer” and the Kd [6] was 3.5 nM. It also gave an Activation folds ([7]; Activation of III-3 by Pepper mutants with multiple mutations) of 3600 folds and an Activation folds ([7]; Activation of III-3 by Pepper mutants with single mutation) of 3600 folds.

B2: mCherry-4Pepper: mCherry mRNA fused with 4Pepper-7, SEQ ID No: 26 (nucleic acid)
chain: AUGGUGAGCAAGGGCGAGGAGGAUAACAUGGCCAUCAUCAAGGAGUUCAUGCGCUUCAAGGUGCACAUGGAGGGCUCCGUGAACGGCCACGAGUUCGAGAUCGAGGGCGAGGGCGAGGGCCGCCCCUACGAGGGCACCCAGACCGCCAAGCUGAAGGUGACCAAGGGUGGCCCCCUGCCCUUCGCCUGGGACAUCCUGUCCCCUCAGUUCAUGUACGGCUCCAAGGCCUACGUGAAGCACCCCGCCGACAUCCCCGACUACUUGAAGCUGUCCUUCCCCGAGGGCUUCAAGUGGGAGCGCGUGAUGAACUUCGAGGACGGCGGCGUGGUGACCGUGACCCAGGACUCCUCCCUGCAGGACGGCGAGUUCAUCUACAAGGUGAAGCUGCGCGGCACCAACUUCCCCUCCGACGGCCCCGUAAUGCAGAAGAAGACCAUGGGCUGGGAGGCCUCCUCCGAGCGGAUGUACCCCGAGGACGGCGCCCUGAAGGGCGAGAUCAAGCAGAGGCUGAAGCUGAAGGACGGCGGCCACUACGACGCUGAGGUCAAGACCACCUACAAGGCCAAGAAGCCCGUGCAGCUGCCCGGCGCCUACAACGUCAACAUCAAGUUGGACAUCACCUCCCACAACGAGGACUACACCAUCGUGGAACAGUACGAACGCGCCGAGGGCCGCCACUCCACCGGCGGCAUGGACGAGCUGUACAAGUAACUCGCUAGAGCAUGGUUAAGCUUCCCACGGAGGAUCCCCAAUCGUGGCGUGUCGGCCUCUCCCAAUCGUGGCGUGUCGGCCUCUCCCAAUCGUGGCGUGUCGGCCUCUCCCAAUCGUGGCGUGUCGGCCUCUCUUCGGAGAGGCACUGGCGCCGGAGAGGCACUGGCGCCGGAGAGGCACUGGCGCCGGAGAGGCACUGGCGCCGGGAUCCUCCGUGGG
With B2 the “in-gel fluorescence of recovered RNA” value [8] was “bright Pepper-III-3 fluorescence signals”.
